Measurements: patent CN113151186A (UNIV SHANGHAI JIAOTONG, dated 2021)

Target: T1, 全长CD271蛋白抗原 (human CD271, full-length protein antigen) (human, UniProt P08138 29-250, limits assumed)
T1 construct: Printed only as full-length CD271 protein; also called CD271全长蛋白; 全长抗原CD271
T1 sequence (looked up): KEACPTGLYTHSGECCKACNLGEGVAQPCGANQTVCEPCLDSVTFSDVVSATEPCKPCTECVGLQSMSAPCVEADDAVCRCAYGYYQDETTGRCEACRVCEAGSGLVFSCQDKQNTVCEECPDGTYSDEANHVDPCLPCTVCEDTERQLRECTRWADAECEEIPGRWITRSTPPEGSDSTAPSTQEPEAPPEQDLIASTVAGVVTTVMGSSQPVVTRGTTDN
Test: BLI (ForteBio), full-length CD271 immobilised on ProA sensor, antibody at 30-130 nM

Kd: 3.37 nM
koff: 0.000225 s⁻¹
kon: 66900 M⁻¹ s⁻¹
B1: 抗人CD271单克隆抗体 CD271T-2 (小鼠腹水纯化抗体, 杂交瘤细胞株CD271T-2, CGMCC 21494) (antibody, V domains shown)
VH: QVTLKESGPGILKPSQTLSLTCSFSGFSLSTSGMGVGWIRQPSGKGLEWLAHIWWDDDKYYNPSLKSQLTISKDTSRNQVFLKITSVDTAGTATYYCARRDYGNYYAMDYWGQGTSVTVS
VL: DIVLTQSPASLAVSLGQRATISCKASQSVDYDGDSYMNWYQQKPGQPPKLLIYAASNLESGIPARFSGSGSGTDFTLNIHPVEEEDAATYYCQQSNEDPFTFGSGTKLEIK
notes: It was purified from mouse ascites on MabSelect SuRe; also called CD271T-2腹水纯化抗体; 抗人CD271腹水抗体
